What was measured:
MS2 coat protein [1] = assay: apparent KD of MS2 coat protein; designed switch direction (-1 OFF switch, 1 ON switch): -1; higher = weaker reporter binding; details: Eterna round: R98
Method: (§1)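 RNA-MaP: designed FMN/MS2 RNA switches (84 nt design region) are transcribed on-chip within common flanks and titrated with SNAP-549-labelled MS2 coat protein (about 1-3000 nM) in 100 mM Tris pH 7.5, 80 mM KCl, 4 mM MgCl2, without or with 200 uM FMN. Median apparent KD per design; activation ratio = KD,OFF / KD,ON.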

MS2 coat protein [2] = assay: apparent KD of MS2 coat protein; higher = weaker reporter binding; details: Eterna round: R101
Method: as §1

MS2 coat protein [3] = assay: apparent KD of MS2 coat protein; designed switch direction (-1 OFF switch, 1 ON switch): 1; higher = weaker reporter binding; details: Eterna round: R98
Method: as §1

| Sequence | apparent KD of MS2 coat protein (MS2 coat protein [3]; input ligand: FMN 200 uM) | apparent KD of MS2 coat protein (MS2 coat protein [3]; input ligand: none) | other results |
| --- | --- | --- | --- |
| GCACUGGAUGUAGGAUAUCAGGACGAUAAGUCCUGAGAAGGACAUGAGGAUCACCCAUGUAAAUACUCCCAGUGCAAUAAUAUA [Denovo Exng1 21] | – | – | apparent KD of MS2 coat protein (MS2 coat protein [1]; input ligand: FMN 200 uM): 16.6 nM; apparent KD of MS2 coat protein (MS2 coat protein [1]; input ligand: none): 12.6 nM |
| AGAGCUGCUCAGAAGGAGGAUCACCCUUUCGAAAGAAAUACGGAGGCUGAAAAGCCUCCGAAAUCUUAGGAUAUGAGCAGCUCA [#SharedSequence - IExNG2: 6] (puzzle (switch architecture): Inverted Exclusion NG 2) | – | – | apparent KD of MS2 coat protein (MS2 coat protein [2]; input ligand: FMN 200 uM): 166 nM; apparent KD of MS2 coat protein (MS2 coat protein [2]; input ligand: none): 153 nM |
| UCACUCACGUUAGGAUAUGGAUCGGAAAACGAUCCAGAAGGAACCUGCAAACCUGAGGAUCACCCGGGUUCCAAUAACGAGUGA [SameSame 9 - Jieux - Same State NG 1] | 458 nM | 778 nM | – |
| AUGGGUUAAGGAGGAUAUAGAGGGAGGAGUAAACAUGAGGAUCACCCAUGUAUUUAAUUAGUUUACUAGAAGGCUUGUGAUUGU [1.8082e+07] | 52.7 nM | 33.9 nM | – |
| AUUAACGGAGCUACAUGAGGAUCACCCAUGUACGGGUGAUCCUAGGAUAUGCCCGCAACUGUGUCGCAGAAGGAGGGUUGCCCA [Soterixe] | 37.6 nM | 25.6 nM | – |
| GCGCGCGGUUGAGGAUAUUUGCGUGCGGAUCGCCCGCGCACAUGAGGAUCACCCAUGUACGAGUAGGAGAAGGUGGCCCGUGUG [Same StateNG2] | 178 nM | 236 nM | – |
| CAGGCUGCCAGAGGAUAAUGGACAUGAGGAUCACCCAUGUGUCAGGAUAUGGGUUUCACAUGGACUCAGAAGGGACCAGCUCGA [Raraator] | 33.8 nM | 131 nM | – |
| AAUAGUGGCGUAGGAUAUCUGCGUACAUGAGGAUCACCCAUGUCUCCCAGCUGCUGAGCUGGGACAGAGAAGGGCGACCGCAUA [Digece] | 76.4 nM | 226 nM | – |
| AAUUAAUUAAUUAAUUGGACUGAUACAUGAGGAUCACCCAUGUAGGAUAUGCAGUGGAAUACACUGCAGAAGGACAUACAGUCC [Exclusion NG 3/1-B2] | – | – | apparent KD of MS2 coat protein (MS2 coat protein [1]; input ligand: FMN 200 uM): 18.3 nM; apparent KD of MS2 coat protein (MS2 coat protein [1]; input ligand: none): 14.5 nM |
| AAAUAAAUUGAAGGAUAUCAGGGUGCACCUCAGUAAAACUGAGGUGCACCCUGAGAAGGUCGAGGAUCACCCGAUCUAAAUAAA [#SharedSequence SLExNG1: 1-2] (puzzle (switch architecture): Small Loop Exclusion NG 1) | – | – | apparent KD of MS2 coat protein (MS2 coat protein [2]; input ligand: FMN 200 uM): 12 nM; apparent KD of MS2 coat protein (MS2 coat protein [2]; input ligand: none): 8.76 nM |
| GGCGACGGUGUAGGAUAUGUGGGUUUCAAAGGGAUAGAAGGAUAGUUGGGAAUUAGGACAAGCAAACAUGAGGAUCACCCAUGU [Same STate NG 1] | 34.8 nM | 44 nM | – |
| GGCUAACGGGCUAACAUGAGGAUCACCCAUGUGGACUCAUGGUAGGAUAUGCUGUACUUUGUACAGCAGAAGGGCCGGUGAGCC [Mat - Same State NG 3 - JL Mod - D9] | 283 nM | 726 nM | – |
| AUGGUUGUCGUAGGAUAUGUAGGAUAUUCCUACAUGAGGAUCACCCAUGUUCGCAUGGAAGAAGGACAGAAGGACGAUGACCAA [salish99_SSNG2_008 #endbits investigation] (puzzle (switch architecture): Same State NG 2) | – | – | apparent KD of MS2 coat protein (MS2 coat protein [2]; input ligand: FMN 200 uM): 9.65 nM; apparent KD of MS2 coat protein (MS2 coat protein [2]; input ligand: none): 840 nM |
| CUUACUUUGUAGAAGGGUGACAUGAGGAUCACCCAUGUGCGUCUCCUGAAAGACCAGGGUACGCCACAGGAUAUACAAAGUAAG [Tigeatdi] (puzzle (switch architecture): Inverted Same State NG 2) | – | – | apparent KD of MS2 coat protein (MS2 coat protein [2]; input ligand: FMN 200 uM): 59.8 nM; apparent KD of MS2 coat protein (MS2 coat protein [2]; input ligand: none): 116 nM |
| CGGAAUUGUACAGGAUAUGAGGGUGCCUGAGCCUCAGAAGGGUAGACCGACAUGAGGAUCACCCAUGUAUGCGGAUAACGUCCG [Sobela] | 1660 nM | 224 nM | – |
| UCAACAAGGUGAGGAUAUGCACAGGAUCACCGUGUAGAAGGCAUCAGGUAGAAGGUGCAGAGGAUCACCCUGUAAGGAUAUACA [pwkr2 ssNG1 DX.9] | 526 nM | 1320 nM | – |
| CGUUGUUCCGCAGGAUAUGUAUUGGAUUACAAUACAGAAGGGCGAUAACAUGAGGAUCACCCAUGUGUGGACAAUGAGGAAGAG [SameState #38 NG1] | 54.9 nM | 789 nM | – |
| GCAGCUAAUGCAGGAUAUCAGCACGUGUAGUGCUGAGAAGGGCACAUGAGGAUUCUGUCUGUGAUCAAUUAAUAUUAAUGCUGC [salish99#hingeEx3_55-58_006] (puzzle (switch architecture): Exclusion NG 1) | – | – | apparent KD of MS2 coat protein (MS2 coat protein [2]; input ligand: FMN 200 uM): 11.5 nM; apparent KD of MS2 coat protein (MS2 coat protein [2]; input ligand: none): 30.4 nM |

Source: the supplement of paper PMC9170038
